These results are taken from patent US5849493.

For this series, the target named is STF-1 / Pbx complex C2 of Tu-6 nuclear extract (UniProt P52947+P40424). Kind of series: EMSA. The following applies: off-rate with 1000-fold unlabeled TSEII, room temperature; C2 supershift/block by STF-1 and Pbx antisera. (Mobility shift assays separate free from complexed probe on a gel.)
STF-1 / Pbx complex C2 of Tu-6 nuclear extract, sequence (P52947 whole entry, chain 1 of 2): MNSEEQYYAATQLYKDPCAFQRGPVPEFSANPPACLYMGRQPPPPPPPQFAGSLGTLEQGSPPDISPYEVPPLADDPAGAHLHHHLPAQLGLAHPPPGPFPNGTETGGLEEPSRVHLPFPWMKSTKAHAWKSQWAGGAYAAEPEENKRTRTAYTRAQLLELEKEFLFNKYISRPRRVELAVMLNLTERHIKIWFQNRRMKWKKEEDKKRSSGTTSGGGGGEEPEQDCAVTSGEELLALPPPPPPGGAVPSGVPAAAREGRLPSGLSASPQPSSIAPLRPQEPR
STF-1 / Pbx complex C2 of Tu-6 nuclear extract, sequence (P40424 whole entry, chain 2 of 2): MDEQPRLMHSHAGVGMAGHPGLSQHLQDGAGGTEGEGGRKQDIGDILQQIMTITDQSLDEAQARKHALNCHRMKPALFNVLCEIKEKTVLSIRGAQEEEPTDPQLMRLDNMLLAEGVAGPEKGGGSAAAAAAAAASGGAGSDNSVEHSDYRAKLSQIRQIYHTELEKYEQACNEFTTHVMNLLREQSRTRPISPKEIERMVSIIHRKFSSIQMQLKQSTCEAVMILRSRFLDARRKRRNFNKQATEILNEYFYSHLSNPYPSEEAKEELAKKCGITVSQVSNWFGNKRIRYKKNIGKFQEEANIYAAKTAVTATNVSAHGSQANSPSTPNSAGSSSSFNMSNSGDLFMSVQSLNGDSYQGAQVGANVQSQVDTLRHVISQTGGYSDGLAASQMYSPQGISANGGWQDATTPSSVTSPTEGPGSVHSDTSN

As to “GATCTCAGTAATTAATCATGCA / AGTCATTAATTAGTACGTCATG [somatostatin TSEII]”, the koff (min (half-life)) was found to be 15.
